Source: patent publication US20260258142A1 (published 2026)

Molecular target: Rabbit polyclonal Ab
Assay: ELISA

- Kd: 18.6 nM
B1: phosphorylated HisTAG-ΔPDGFRAaa1-528 (receptor)
chain: QLSLPSILPNENEKVVQLNSSFSLRCFGESEVSWQYPMSEEESSDVEIRNEENNSGLFVTVLEVSSASAAHTGLYTCYYNHTQTEENELEGRHIYIYVPDPDVAFVPLGMTDYLVIVEDDDSAIIPCRTTDPETPVTLHNSEGVVPASYDSRQGFNGTFTVGPYICEATVKGKKFQTIPFNVYALKATSELDLEMEALKTVYKSGETIVVTCAVFNNEVVDLQWTYPGEVKGKGITMLEEIKVPSIKLVYTLTVPEATVKDSGDYECAARQATREVKEMKKVTISVHEKGFIEIKPTFSQLEAVNLHEVKHFVVEVRAYPPPRISWLKNNLTLIENLTEITTDVEKIQEIRYRSKLKLIRAKEEDSGHYTIVAQNEDAVKSYTFELLTQVPSSILDLVDDHHGSTGGQTVRCTAEGTPLPDIEWMICKDIKKCNNETSWTILANNVSNIITEIHSRDRSTVEGRVTFAKVEETIAVRCLAKNLLGAENRELKLVAPTLRSELTVA
modifications: tyrosine-phosphorylated (ectopically, by MAN2A1-FER in HUH7 cells); sites recognised by the antibodies: pY118/pY120, pY342, pY375, pY391
